From patent US20240384250A1, “FIBROBLAST GROWTH FACTOR 23 MODULATING COMPOUNDS” (THE UAB RESEARCH FOUNDATION, priority 2021, published 2024)
“Also recorded” adds a separate entry of the source.

Tested on: FGF23 and FGFR1c
Assay: sKL detection assay (FGF23 coated, Fc-FGFR1c detection)
Type: binding
Conditions: for binding in the sKL detection assay: commercial preparations compared with the sKL protein; for binding in the sKL detection assay, total cell lysates: lysates of stably transfected HEK293T cells
Description: Commercially available ELISA plates (Maxisorp) are coated with 5 μg/ml of recombinant FGF23 protein (R&D Systems) and unspecific binding sites are blocked with BSA/Tween20. Wells are incubated with sKL in solution (which can be plasma, serum or cell culture supernatants) for one hour, washed and incubated for one hour with 750 ng/ml of recombinant FGFR1α(IIIc)-Fc (R&D Systems), which is a chimeric protein consisting of the FGFR1 ectodomain and the Fc region of a human IgG. FGFR1 only binds to FGF23 in the presence of sKL, and the formation of this trimeric sandwich complex is then measured by detecting the presence of the Fc domain that is coupled to FGFR1. To do so, wells are washed and incubated with 400 ng/ml of anti-human IgG conjugated to horseradish peroxidase (HRP; Promega). Wells are washed and incubated with HRP substrate. After development for about 30 minutes, reactions are analyzed on a standard plate reader via absorptions at […]. Incubations with recombinant sKL dissolved in PBS at defined concentrations serve as standards that are used as reference values to determine sKL concentrations in the studied human samples. […]
HEK293 cells were plated in 10 cm dishes supplemented with 10% FBS (26140079, Gibco) and I× Pen/Strep (15140122, Gibco). Cells were transfected with appropriate klotho or green fluorescent protein cDNA constructs. After 2 days, clones were selected by using 1 μg/ml of puromycin (A1113803, Gibco). Cells were then split and plated in 10 cm dishes in DMEM supplemented with FBS and puromycin. After 48 hours, cells were lysed in 1 ml of RIPA buffer with the addition of a protease inhibitor (11873580001, Roche) for 30 minutes. The mixture was then centrifuged at 20,000 g for 1 hour to remove all cell debris. Activity assay was run as above in the sKL halflife study. Instead of serum, 20 μl of the indicated cell lysate was used and combined with 80 μl of activity assay buffer.

B1: Com.sKL: commercial preparation, mouse sKL from R&D Systems (1819KL050), aa 35-982 (protein)
chain: AEPGQGAQTWARFARAPAPEAAGLLHDTFPDGFLWAVGSAAYQTEGGWRQHGKGASIWDTFTHHSGAAPSDSPIVVAPSGAPSPPLSSTGDVASDSYNNVYRDTEGLRELGVTHYRFSISWARVLPNGTAGTPNREGLRYYRRLLERLRELGVQPVVTLYHWDLPQRLQDTYGGWANRALADHFRDYAELCFRHFGGQVKYWITIDNPYVVAWHGYATGRLAPGVRGSSRLGYLVAHNLLLAHAKVWHLYNTSFRPTQGGRVSIALSSHWINPRRMTDYNIRECQKSLDFVLGWFAKPIFIDGDYPESMKNNLSSLLPDFTESEKRLIRGTADFFALSFGPTLSFQLLDPNMKFRQLESPNLRQLLSWIDLEYNHPPIFIVENGWFVSGTTKRDDAKYMYYLKKFIMETLKAIRLDGVDVIGYTAWSLMDGFEWHRGYSIRRGLFYVDFLSQDKELLPKSSALFYQKLIEDNGFPPLPENQPLEGTFPCDFAWGVVDNYVQVDTTLSQFTDPNVYLWDVHHSKRLIKVDGVVAKKRKPYCVDFSAIRPQITLLREMRVTHFRFSLDWALILPLGNQTQVNHTVLHFYRCMISELVHANITPVVALWQPAAPHQGLPHALAKHGAWENPHTALAFADYANLCFKELGHWVNLWITMNEPNTRNMTYRAGHHLLRAHALAWHLYDDKFRAAQKGKISIALQADWIEPACPFSQNDKEVAERVLEFDIGWLAEPIFGSGDYPRVMRDWLNQKNNFLLPYFTEDEKKLVRGSFDFLAVSHYTTILVDWEKEDPMKYNDYLEVQEMTDITWLNSPSQVAVVPWGLRKVLNWLRFKYGDLPMYVTANGIDDDPHAEQDSLRIYYIKNYVNEALKAYVLDDINLCGYFAYSLSDRSAPKSGFYRYAANQFEPKPSMKHYRKIIDSNGFLGSGTLGRFCPEEYTVCTECGFFQTRK
- binding in the sKL detection assay: significantly reduced binding

B2: BKL: full-length β-klotho in total lysates of stably transfected HEK293T cells (protein)
chain: MKTGCAAGSPGNEWIFFSSDERNTRSRKTMSNRALQRSAVLSAFVLLRAVTGFSGDGKAIWDKKQYVSPVNPSQLFLYDTFPKNFSWGVGTGAFQVEGSWKTDGRGPSIWDRYVYSHLRGVNGTDRSTDSYIFLEKDLLALDFLGVSFYQFSISWPRLFPNGTVAAVNAQGLRYYRALLDSLVLRNIEPIVTLYHWDLPLTLQEEYGGWKNATMIDLFNDYATYCFQTFGDRVKYWITIHNPYLVAWHGFGTGMHAPGEKGNLTAVYTVGHNLIKAHSKVWHNYDKNFRPHQKGWLSITLGSHWIEPNRTDNMEDVINCQHSMSSVLGWFANPIHGDGDYPEFMKTGAMIPEFSEAEKEEVRGTADFFAFSFGPNNFRPSNTVVKMGQNVSLNLRQVLNWIKLEYDDPQILISENGWFTDSYIKTEDTTAIYMMKNFLNQVLQAIKFDEIRVFGYTAWTLLDGFEWQDAYTTRRGLFYVDFNSEQKERKPKSSAHYYKQIIQDNGFPLKESTPDMKGRFPCDFSWGVTESVLKPEFTVSSPQFTDPHLYVWNVTGNRLLYRVEGVRLKTRPSQCTDYVSIKKRVEMLAKMKVTHYQFALDWTSILPTGNLSKVNRQVLRYYRCVVSEGLKLGVFPMVTLYHPTHSHLGLPLPLLSSGGWLNMNTAKAFQDYAELCFRELGDLVKLWITINEPNRLSDMYNRTSNDTYRAAHNLMIAHAQVWHLYDRQYRPVQHGAVSLSLHCDWAEPANPFVDSHWKAAERFLQFEIAWFADPLFKTGDYPSVMKEYIASKNQRGLSSSVLPRFTAKESRLVKGTVDFYALNHFTTRFVIHKQLNTNRSVADRDVQFLQDITRLSSPSRLAVTPWGVRKLLAWIRRNYRDRDIYITANGIDDLALEDDQIRKYYLEKYVQEALKAYLIDKVKIKGYYAFKLTEEKSKPRFGFFTSDFRAKSSVQFYSKLISSSGLPAENRSPACGQPAEDTDCTICSFLVEKKPLIFFGCCFISTLAVLLSITVFHHQKRRKFQKARNLQNIPLKKGHSRVFS
modifications: left off: small tags and cut ends
notes: full-length β-klotho in total lysates of stably transfected HEK293T cells
- binding in the sKL detection assay, total cell lysates: no measurable binding activity

B3: KL: full-length klotho in total lysates of stably transfected HEK293T cells (protein, UniProt Q9UEF7 1-1012, looked up)
chain: MPASAPPRRPRPPPPSLSLLLVLLGLGGRRLRAEPGDGAQTWARFSRPPAPEAAGLFQGTFPDGFLWAVGSAAYQTEGGWQQHGKGASIWDTFTHHPLAPPGDSRNASLPLGAPSPLQPATGDVASDSYNNVFRDTEALRELGVTHYRFSISWARVLPNGSAGVPNREGLRYYRRLLERLRELGVQPVVTLYHWDLPQRLQDAYGGWANRALADHFRDYAELCFRHFGGQVKYWITIDNPYVVAWHGYATGRLAPGIRGSPRLGYLVAHNLLLAHAKVWHLYNTSFRPTQGGQVSIALSSHWINPRRMTDHSIKECQKSLDFVLGWFAKPVFIDGDYPESMKNNLSSILPDFTESEKKFIKGTADFFALCFGPTLSFQLLDPHMKFRQLESPNLRQLLSWIDLEFNHPQIFIVENGWFVSGTTKRDDAKYMYYLKKFIMETLKAIKLDGVDVIGYTAWSLMDGFEWHRGYSIRRGLFYVDFLSQDKMLLPKSSALFYQKLIEKNGFPPLPENQPLEGTFPCDFAWGVVDNYIQVDTTLSQFTDLNVYLWDVHHSKRLIKVDGVVTKKRKSYCVDFAAIQPQIALLQEMHVTHFRFSLDWALILPLGNQSQVNHTILQYYRCMASELVRVNITPVVALWQPMAPNQGLPRLLARQGAWENPYTALAFAEYARLCFQELGHHVKLWITMNEPYTRNMTYSAGHNLLKAHALAWHVYNEKFRHAQNGKISIALQADWIEPACPFSQKDKEVAERVLEFDIGWLAEPIFGSGDYPWVMRDWLNQRNNFLLPYFTEDEKKLIQGTFDFLALSHYTTILVDSEKEDPIKYNDYLEVQEMTDITWLNSPSQVAVVPWGLRKVLNWLKFKYGDLPMYIISNGIDDGLHAEDDQLRVYYMQNYINEALKAHILDGINLCGYFAYSFNDRTAPRFGLYRYAADQFEPKASMKHYRKIIDSNGFPGPETLERFCPEEFTVCTECSFFHTRKSLLAFIAFLFFASIISLSLIFYYSKKGRRSYK
modifications: full-length
notes: full-length klotho in total lysates of stably transfected HEK293T cells
- binding in the sKL detection assay, total cell lysates: much weaker binding
- binding in the sKL detection assay, total cell lysates (listed as full-length klotho): negative

B4: KL1: human klotho domain 1 (KL1) from PeproTech, aa 34-549 (protein)
chain: EPGDGAQTWARFSRPPAPEAAGLFQGTFPDGFLWAVGSAAYQTEGGWQQHGKGASIWDTFTHHPLAPPGDSRNASLPLGAPSPLQPATGDVASDSYNNVFRDTEALRELGVTHYRFSISWARVLPNGSAGVPNREGLRYYRRLLERLRELGVQPVVTLYHWDLPQRLQDAYGGWANRALADHFRDYAELCFRHFGGQVKYWITIDNPYVVAWHGYATGRLAPGIRGSPRLGYLVAHNLLLAHAKVWHLYNTSFRPTQGGQVSIALSSHWINPRRMTDHSIKECQKSLDFVLGWFAKPVFIDGDYPESMKNNLSSILPDFTESEKKFIKGTADFFALCFGPTLSFQLLDPHMKFRQLESPNLRQLLSWIDLEFNHPQIFIVENGWFVSGTTKRDDAKYMYYLKKFIMETLKAIKLDGVDVIGYTAWSLMDGFEWHRGYSIRRGLFYVDFLSQDKMLLPKSSALFYQKLIEKNGFPPLPENQPLEGTFPCDFAWGVVDNYIQVDTTLSQFTDLNVYLW
- binding in the sKL detection assay: cannot mediate FGF23-FGFR1c binding; also recorded: did not show any bioactivity; also recorded: no binding

B5: sBKL: soluble β-klotho in total lysates of stably transfected HEK293T cells (protein)
chain: MKTGCAAGSPGNEWIFFSSDERNTRSRKTMSNRALQRSAVLSAFVLLRAVTGFSGDGKAIWDKKQYVSPVNPSQLFLYDTFPKNFSWGVGTGAFQVEGSWKTDGRGPSIWDRYVYSHLRGVNGTDRSTDSYIFLEKDLLALDFLGVSFYQFSISWPRLFPNGTVAAVNAQGLRYYRALLDSLVLRNIEPIVTLYHWDLPLTLQEEYGGWKNATMIDLFNDYATYCFQTFGDRVKYWITIHNPYLVAWHGFGTGMHAPGEKGNLTAVYTVGHNLIKAHSKVWHNYDKNFRPHQKGWLSITLGSHWIEPNRTDNMEDVINCQHSMSSVLGWFANPIHGDGDYPEFMKTGAMIPEFSEAEKEEVRGTADFFAFSFGPNNFRPSNTVVKMGQNVSLNLRQVLNWIKLEYDDPQILISENGWFTDSYIKTEDTTAIYMMKNFLNQVLQAIKFDEIRVFGYTAWTLLDGFEWQDAYTTRRGLFYVDFNSEQKERKPKSSAHYYKQIIQDNGFPLKESTPDMKGRFPCDFSWGVTESVLKPEFTVSSPQFTDPHLYVWNVTGNRLLYRVEGVRLKTRPSQCTDYVSIKKRVEMLAKMKVTHYQFALDWTSILPTGNLSKVNRQVLRYYRCVVSEGLKLGVFPMVTLYHPTHSHLGLPLPLLSSGGWLNMNTAKAFQDYAELCFRELGDLVKLWITINEPNRLSDMYNRTSNDTYRAAHNLMIAHAQVWHLYDRQYRPVQHGAVSLSLHCDWAEPANPFVDSHWKAAERFLQFEIAWFADPLFKTGDYPSVMKEYIASKNQRGLSSSVLPRFTAKESRLVKGTVDFYALNHFTTRFVIHKQLNTNRSVADRDVQFLQDITRLSSPSRLAVTPWGVRKLLAWIRRNYRDRDIYITANGIDDLALEDDQIRKYYLEKYVQEALKAYLIDKVKIKGYYAFKLTEEKSKPRFGFFTSDFRAKSSVQFYSKLISSSGLPAENRSPACGQPAEDTDCTICSFLVEKKP
modifications: left off: small tags and cut ends
notes: soluble β-klotho in total lysates of stably transfected HEK293T cells
- binding in the sKL detection assay, total cell lysates: no measurable binding activity
